Data as given in paper PMC3171579 (ACS combinatorial science, 2011).
Non-standard residues stand in square brackets, D forms with d. *: point of attachment. Dkb = 3,3-dimethyl-2-ketobutyryl, CC(C)(C)C(=O)C(=O)*; d(β3hF) = N[C@@H](CC(=O)O)Cc1ccccc1; Pip = O=C(O)[C@@H]1CCCCN1; Nle = CCCC[C@H](N)C(=O)O

Test system: cyclophilin A (CypA)
Assay: not given
Settings: cell free assay; cited from earlier work

Molecule | IC50
CC[C@H]1C[C@H](C)[C@@]2(NC1=O)O[C@@H](C[C@H](O)[C@@H](C)CC/C=C/C=C(\C)[C@@H]1C/C=C/C=C/[C@H](O)[C@H](C)[C@@H](O)[C@@H](CCC(C)=O)C(=O)N[C@@H](C(C)C)C(=O)N[C@@H](Cc3cccc(O)c3)C(=O)N3CCC[C@H](N3)C(=O)O1)[C@H](C)[C@H](O)[C@@H]2C [Sanglifehrin A] | ~0.007 µM

Molecular target: T1, FK506-binding protein 12 (human, UniProt P62942 1-108)
T1 sequence (P62942 whole entry): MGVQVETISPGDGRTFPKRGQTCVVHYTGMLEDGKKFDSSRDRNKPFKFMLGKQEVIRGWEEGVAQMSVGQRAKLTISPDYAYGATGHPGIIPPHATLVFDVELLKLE
Assay: fluorescence polarisation
Settings: not given

Molecule | IC50
cyclo(AAF[Dkb][Pip][d(β3hF)]Q) (also: Dkb 4 joined by ester to 3) [rapalog 2k] | 18 µM
cyclo(AA[dA][Dkb][Pip][dI]Q) (also: Dkb 4 joined by ester to 3) [rapalog 2i] | 266 µM

Molecular target: T1, FK506-binding protein 12
Assay: fluorescence polarisation
Settings: not given
Remark: another data set of the same source

Molecule | IC50
cyclo(ADP[dA][Dkb][Pip][d(β3hF)]Q) (also: 5 Dkb: ester to 4) [rapalog 12 (R3 Pro, R4 Asp)] | 3 µM
cyclo(A[dT][Nle][dA][Dkb][Pip][d(β3hF)]Q) (also: 5 Dkb: ester to 4) [rapalog 12 (R3 Nle, R4 D-Thr)] | > 100 µM
cyclo([Nle]P[dA][Dkb][Pip][d(β3hF)]Q) (also: 4 Dkb: ester to 3) [rapalog 11 (R3 Pro, R4 Nle)] | 71 µM
cyclo(AP[dT][dA][Dkb][Pip][d(β3hF)]Q) (also: 5 Dkb: ester to 4) [rapalog 12 (R3 D-Thr, R4 Pro)] | > 100 µM
cyclo(AGP[dA][Dkb][Pip][d(β3hF)]Q) (also: 5 Dkb: ester to 4) [rapalog 12 (R3 Pro, R4 Gly)] | 6 µM
cyclo([dV]P[dA][Dkb][Pip][d(β3hF)]Q) (also: 4 Dkb: ester to 3) [rapalog 11 (R3 Pro, R4 D-Val)] | 64 µM
cyclo(A[dF]P[dA][Dkb][Pip][d(β3hF)]Q) (also: 5 Dkb: ester to 4) [rapalog 12 (R3 Pro, R4 D-Phe)] | 87 µM
cyclo(A[Nle]K[dA][Dkb][Pip][d(β3hF)]Q) (also: 5 Dkb: ester to 4) [rapalog 12 (R3 Lys, R4 Nle)] | > 100 µM
cyclo([dF][dV][dA][Dkb][Pip][d(β3hF)]Q) (also: ester bond between residues 3 and 4) [rapalog 11 (R3 D-Val, R4 D-Phe)] | > 100 µM
cyclo(AK[dF][dA][Dkb][Pip][d(β3hF)]Q) (also: 5 Dkb: ester to 4) [rapalog 12 (R3 D-Phe, R4 Lys)] | > 100 µM
cyclo(K[dT][dA][Dkb][Pip][d(β3hF)]Q) (also: ester bond between residues 3 and 4) [rapalog 11 (R3 D-Thr, R4 Lys)] | > 100 µM
cyclo(K[Nle][dA][Dkb][Pip][d(β3hF)]Q) (also: ester bond between residues 3 and 4) [rapalog 11 (R3 Nle, R4 Lys)] | > 100 µM
cyclo(PK[dA][Dkb][Pip][d(β3hF)]Q) (also: ester bond between residues 3 and 4) [rapalog 11 (R3 Lys, R4 Pro)] | 58 µM
cyclo(AAP[dA][Dkb][Pip][d(β3hF)]Q) (also: 5 Dkb: ester to 4) [rapalog 12 (R3 Pro, R4 Ala)] | 21 µM
cyclo(PP[dA][Dkb][Pip][d(β3hF)]Q) (also: 4 Dkb: ester to 3) [rapalog 11 (R3 Pro, R4 Pro)] | 27 µM
cyclo(KP[dA][Dkb][Pip][d(β3hF)]Q) (also: 4 Dkb: ester to 3) [rapalog 11 (R3 Pro, R4 Lys)] | 36 µM
cyclo(K[dF][dA][Dkb][Pip][d(β3hF)]Q) (also: ester bond between residues 3 and 4) [rapalog 11 (R3 D-Phe, R4 Lys)] | > 100 µM
cyclo(A[dT]P[dA][Dkb][Pip][d(β3hF)]Q) (also: 5 Dkb: ester to 4) [rapalog 12 (R3 Pro, R4 D-Thr)] | 38 µM
cyclo([dV][dV][dA][Dkb][Pip][d(β3hF)]Q) (also: ester bond between residues 3 and 4) [rapalog 11 (R3 D-Val, R4 D-Val)] | > 100 µM
cyclo(AKP[dA][Dkb][Pip][d(β3hF)]Q) (also: 5 Dkb: ester to 4) [rapalog 12 (R3 Pro, R4 Lys)] | 29 µM
cyclo(A[dV][dV][dA][Dkb][Pip][d(β3hF)]Q) (also: 5 Dkb: ester to 4) [rapalog 12 (R3 D-Val, R4 D-Val)] | > 100 µM

Molecule | IC50
cyclo([dF]P[dA][Dkb][Pip][d(β3hF)]Q) (also: 4 Dkb: ester to 3) [rapalog 11 (R3 Pro, R4 D-Phe)] | 46 µM
cyclo(AK[dA][Dkb][Pip][d(β3hF)]Q) (also: ester bond between residues 3 and 4) [rapalog 11 (R3 Lys, R4 Ala)] | > 100 µM
cyclo(WK[dA][Dkb][Pip][d(β3hF)]Q) (also: ester bond between residues 3 and 4) [rapalog 11 (R3 Lys, R4 Trp)] | 12 µM
cyclo([Nle][dT][dA][Dkb][Pip][d(β3hF)]Q) (also: ester bond between residues 3 and 4) [rapalog 11 (R3 D-Thr, R4 Nle)] | > 100 µM
cyclo(PA[dA][Dkb][Pip][d(β3hF)]Q) (also: ester bond between residues 3 and 4) [rapalog 11 (R3 Ala, R4 Pro)] | > 100 µM
cyclo(A[dT]K[dA][Dkb][Pip][d(β3hF)]Q) (also: 5 Dkb: ester to 4) [rapalog 12 (R3 Lys, R4 D-Thr)] | > 100 µM
cyclo(KK[dA][Dkb][Pip][d(β3hF)]Q) (also: ester bond between residues 3 and 4) [rapalog 11 (R3 Lys, R4 Lys)] | > 100 µM
cyclo(A[dV]P[dA][Dkb][Pip][d(β3hF)]Q) (also: 5 Dkb: ester to 4) [rapalog 12 (R3 Pro, R4 D-Val)] | 43 µM
cyclo(WP[dA][Dkb][Pip][d(β3hF)]Q) (also: 4 Dkb: ester to 3) [rapalog 11 (R3 Pro, R4 Trp)] | 21 µM
cyclo(AKA[dA][Dkb][Pip][d(β3hF)]Q) (also: 5 Dkb: ester to 4) [rapalog 12 (R3 Ala, R4 Lys)] | > 100 µM
cyclo(GK[dA][Dkb][Pip][d(β3hF)]Q) (also: ester bond between residues 3 and 4) [rapalog 11 (R3 Lys, R4 Gly)] | 93 µM
cyclo([dT]P[dA][Dkb][Pip][d(β3hF)]Q) (also: 4 Dkb: ester to 3) [rapalog 11 (R3 Pro, R4 D-Thr)] | 41 µM
cyclo(AAK[dA][Dkb][Pip][d(β3hF)]Q) (also: 5 Dkb: ester to 4) [rapalog 12 (R3 Lys, R4 Ala)] | > 100 µM
cyclo(AP[dA][Dkb][Pip][d(β3hF)]Q) (also: ester bond between residues 3 and 4) [rapalog 11 (R3 Pro, R4 Ala)] | 33 µM
cyclo(DP[dA][Dkb][Pip][d(β3hF)]Q) (also: ester bond between residues 3 and 4) [rapalog 11 (R3 Pro, R4 Asp)] | 21 µM
cyclo(AP[dV][dA][Dkb][Pip][d(β3hF)]Q) (also: 5 Dkb: ester to 4) [rapalog 12 (R3 D-Val, R4 Pro)] | > 100 µM
cyclo([dT]K[dA][Dkb][Pip][d(β3hF)]Q) (also: ester bond between residues 3 and 4) [rapalog 11 (R3 Lys, R4 D-Thr)] | 62 µM
cyclo(AP[dF][dA][Dkb][Pip][d(β3hF)]Q) (also: 5 Dkb: ester to 4) [rapalog 12 (R3 D-Phe, R4 Pro)] | > 100 µM
cyclo(A[dF][dV][dA][Dkb][Pip][d(β3hF)]Q) (also: 5 Dkb: ester to 4) [rapalog 12 (R3 D-Val, R4 D-Phe)] | > 100 µM
cyclo([dV]K[dA][Dkb][Pip][d(β3hF)]Q) (also: ester bond between residues 3 and 4) [rapalog 11 (R3 Lys, R4 D-Val)] | 80 µM
